Sequences and labels used below:
B1: OR4K15 (parent)
chain: GUUAACGGUCAUAGGCCAUGGAAACUAGGAGCACCAUUUCGCUGCCAGUGAAGAAAUGAACAAAGAAAAUCUGGGCCAGGCAGGCAUCAAAAGAAAUAGUCUUGCGCUCAACCAGAAAGUCUGUAAUCAUUUUAAGGGUA

The record followed here is the RNAGym collection of RNA variant scans (doi:10.7554/elife.90254).

In the series the parent is B1. The series is described as follows: self-cleavage, relative activity (ratio to wild type); higher = more cleavage; in vitro, sequencing; the parent is a self-cleaving ribozyme.
Consider A33G U102G, for which the self-cleavage is 0.47.
As for C34A U122C, the self-cleavage was 0.77.
With A36G A86G the figure was 1.01.
For A36G A86U, the self-cleavage amounted to 2.91.
The figure for A33U A129U is 1.42; for A33U A129G it is 1.03.
With A33G U132C the figure was 0.83.
For the variant A33G U132A, the self-cleavage was determined as 0.51.
The figure for A33G U70C is 0.22; for A33U A82G it is 0.88; for A33G C112G it is 0.02.
Regarding A33U A98G, the self-cleavage amounted to 1.53.
On to C35U U57A, for which the self-cleavage was 0.59.
Take A33C G74A: the self-cleavage was determined as 0.38.
As for A33U U131C, the self-cleavage was found to be 1.83.
A36G A135G: the self-cleavage was determined as 1.59.
In the case of A33G C34A, the self-cleavage amounted to 1.19.
A33G A67U: the self-cleavage is 1.36.
With A33U A95G the figure was 1.66; with G31C U139C, 1.53.
In the case of C34A A89G, the self-cleavage was determined as 1.66.
The figure for C34A A89U is 1.63; for A36C U49C it is 1.28; for C35U A110G it is 0.14.
For the variant C34U A96C, the self-cleavage amounted to 0.19.
Regarding C34U A90G, the self-cleavage was 0.74.
G31C U133C: the self-cleavage worked out at 1.95.
Consider A33C U102C, for which the self-cleavage is 2.22.
Consider A33U A60G, for which the self-cleavage was determined as 1.38.
Regarding A36G A116U, the self-cleavage is 1.
The figure for C35U A134G is 1.23; for A33G U131C it is 0.63.
A33G U103C: the self-cleavage came out at 0.4.
With A33G U103A the figure was 0.46; with A36G G119C, 1.4.
With C34A A52G, the self-cleavage stood at 1.28.
Regarding C32U, the self-cleavage came out at 1.28.
C32A: the self-cleavage was 1.2.
For C32G, the self-cleavage was 1.25.
As for A33U A90G, the self-cleavage was 1.06.
Consider A30U U120C, for which the self-cleavage was 1.29.
As for G31A U57C, the self-cleavage is 1.2.
C32A U87C: the self-cleavage was 1.38.
As for C35U A95G, the self-cleavage stood at 1.74.
For the variant A33G C81U, the self-cleavage turned out to be 0.17.
As to C34U A116G, the self-cleavage amounted to 0.54.
On to C32U U102C, for which the self-cleavage was 1.73.
In the case of A33C A140U, the self-cleavage worked out at 1.4.
Turning to G31A U43A, the self-cleavage is 2.08.
As to A33U A51U, the self-cleavage stood at 0.89.
The figure for A36G A118G is 1.47.
For A36G A118U, the self-cleavage was determined as 0.73.
Take A36G A118C: the self-cleavage was found to be 1.46.
The figure for G31U A54G is 1.34.
A33C A67U: the self-cleavage was 1.28.
Turning to A33C A89G, the self-cleavage worked out at 1.31.
For A36C, the self-cleavage stood at 1.52.
The figure for A36G is 1.39; for A30U U72C it is 0.27; for A30U U72A it is 0.27.
Regarding A36G G79A, the self-cleavage amounted to 0.1.
Turning to A33G U57C, the self-cleavage worked out at 0.64.
Regarding C32U A69G, the self-cleavage came out at 1.21.
As to A36C U132C, the self-cleavage was 1.67.
With A33G A125G, the self-cleavage was found to be 0.23.
With A33G A125U the figure was 1.17; with A36C A135G, 2.33; with A33C U38C, 1.53.
Turning to A36G G106A, the self-cleavage came to 0.02.
Consider C32A U132C, for which the self-cleavage turned out to be 0.85.
On to A36C A51U, for which the self-cleavage turned out to be 2.34.
The figure for A33G A94U is 0.59.
With A33G A56C the figure was 0.41.
The figure for C34U A64G is 0.98.
For the variant C32U C45G, the self-cleavage is 1.23.
With A33G A98U the figure was 1.19.
With C34U A110G, the self-cleavage came to 0.19.
For G31U A111U, the self-cleavage stood at 0.15.
On to A33G G53C, for which the self-cleavage was found to be 0.81.
With C32U U38C, the self-cleavage worked out at 1.02.
As to A33U A56G, the self-cleavage was determined as 1.57.
Turning to C35U U131C, the self-cleavage is 0.58.
As to A33U A126G, the self-cleavage was found to be 1.4.
With A33U A126U the figure was 1.67; with G31A G137U, 1.5.
In the case of G31A U38C, the self-cleavage is 1.93.
Take A33G A82U: the self-cleavage is 0.1.
In the case of A33G A82G, the self-cleavage amounted to 0.35.
Regarding A33U A55G, the self-cleavage is 1.84.
As for A33U A111G, the self-cleavage is 0.03.
Take C35U A62G: the self-cleavage stood at 0.56.
As to G31A A117G, the self-cleavage was determined as 1.42.
As for A30U U127C, the self-cleavage was found to be 0.71.
For the variant A33G A90G, the self-cleavage worked out at 0.46.
G31A U139A: the self-cleavage came to 1.78.
Regarding G31A U139C, the self-cleavage was 1.82.
With A33G A135U, the self-cleavage was 0.95.
For the variant A33G A129C, the self-cleavage turned out to be 0.63.
With A36G A68G, the self-cleavage is 2.06.
On to A36G A68U, for which the self-cleavage was found to be 1.65.
For A33U A59G, the self-cleavage came to 1.28.
With C34U C105U, the self-cleavage was found to be 0.4.
With C35G A59G, the self-cleavage is 1.58.
Regarding A30U U108A, the self-cleavage is 0.05.
For the variant C32U A78G, the self-cleavage is 0.53.
Consider C32U A78U, for which the self-cleavage was determined as 0.38.
For C32U A67G, the self-cleavage was 1.67.
Take C32A A63G: the self-cleavage was 1.46.
A33C G50U: the self-cleavage came to 1.41.
As to A33U U100C, the self-cleavage is 1.84.
As to C34U A69U, the self-cleavage worked out at 2.37.
Turning to A36G U108A, the self-cleavage came to 0.01.
For the variant A33U C77A, the self-cleavage stood at 1.
Take C34U A54G: the self-cleavage is 1.6.
A33G C113U: the self-cleavage was determined as 0.02.
A36G U57G: the self-cleavage amounted to 0.68.
Take A36G U57C: the self-cleavage stood at 1.27.
With A33G A118U, the self-cleavage is 0.47.
In the case of A36G A96G, the self-cleavage came out at 1.13.
In the case of A33U U127C, the self-cleavage came out at 1.
Consider A36C A78C, for which the self-cleavage worked out at 0.32.
Regarding A36C A126G, the self-cleavage stood at 1.17.
Regarding C32U A86G, the self-cleavage was 1.82.
On to G31A U132C, for which the self-cleavage worked out at 1.72.
Consider A36G C76U, for which the self-cleavage was found to be 0.12.
The figure for A33C G73A is 0.33.
As for C34U U87C, the self-cleavage amounted to 1.63.
With C32U A110G the figure was 0.23; with A36C A69C, 1.47.
For C34U A36U, the self-cleavage worked out at 1.19.
For C32A A90G, the self-cleavage turned out to be 1.27.
With A33U A62U the figure was 2.26; with A33U A62G, 1.52; with A36G A98C, 2.03.
Consider A36G C128A, for which the self-cleavage was 1.16.
With A36C U103C, the self-cleavage was 1.44.
Regarding A36C U127C, the self-cleavage was 1.51.
The figure for G31U U102A is 2.03; for A33G U120G it is 0.65.
A36C A111G: the self-cleavage was 0.02.
The figure for C34U U43C is 1.48; for A33U C34A it is 1.81; for C34U A117G it is 1.91.
Regarding C35U A92U, the self-cleavage is 1.37.
Regarding A33U A66U, the self-cleavage amounted to 1.62.
On to A36G U37G, for which the self-cleavage worked out at 1.45.
In the case of G31U A52G, the self-cleavage worked out at 1.71.
On to A33G U43C, for which the self-cleavage amounted to 0.71.
With A33U A47U, the self-cleavage is 0.84.
As to A33U A47G, the self-cleavage turned out to be 1.68.
In the case of C34U A60G, the self-cleavage is 1.29.
For the variant A36C A91G, the self-cleavage was determined as 1.81.
With A36C U130C the figure was 2.1.
On to A33U C76G, for which the self-cleavage worked out at 0.17.
Consider A36G A89U, for which the self-cleavage turned out to be 2.21.
With A36G A92U the figure was 0.99.
With A33G U39C the figure was 0.8; with A33G U39A, 1.23.
Take A36G U72C: the self-cleavage came out at 0.14.
For A33U U124C, the self-cleavage turned out to be 1.22.
For C35U U38A, the self-cleavage worked out at 0.41.
For C34U C101A, the self-cleavage came out at 0.21.
As for G31A A55G, the self-cleavage worked out at 1.7.
For C35U U108A, the self-cleavage was found to be 0.02.
For the variant A36G A56G, the self-cleavage came to 1.3.
Take A36C G104A: the self-cleavage worked out at 0.03.
Turning to A36C U43C, the self-cleavage turned out to be 1.24.
